In US20260001928A1 (CORTERIA PHARMACEUTICALS, priority 2022, published 2026):
*1 amine or outer side, *2 acyl side, *3 side chain or, on linkers, in order; H or OH if unused. Where no end group is shown, it is not given here. Side-chain parts run from the residue outwards. [ ]: non-standard residue; d: D form. The star is where a group is joined. C20 diacid = O=C(O)CCCCCCCCCCCCCCCCCCC(=O)*; γGlu = O=C(O)[C@H](CCC(=O)[*:2])N[*:1]; NMeI = CC[C@H](C)[C@H](NC)C(=O)O; AEEA = NCCOCCOCC(=O)O; Aib = CC(C)(N)C(=O)O

B1: peptide of SEQ ID NO: 230 (peptide)
peptide: Ac-IVLSLD[dV]PIKLK([AEEA-γGlu-C20 diacid])KILLEQEKQKKQREQAETN[Aib]QILAQV-NH2
SMILES: CC[C@H](C)[C@H](NC(C)=O)C(=O)N[C@H](C(=O)N[C@@H](CC(C)C)C(=O)N[C@@H](CO)C(=O)N[C@@H](CC(C)C)C(=O)N[C@@H](CC(=O)O)C(=O)N[C@@H](C(=O)N1CCC[C@H]1C(=O)N[C@H](C(=O)N[C@@H](CCCCN)C(=O)N[C@@H](CC(C)C)C(=O)N[C@@H](CCCCNC(=O)COCCOCCNC(=O)CC[C@H](NC(=O)CCCCCCCCCCCCCCCCCCC(=O)O)C(=O)O)C(=O)N[C@@H](CCCCN)C(=O)N[C@H](C(=O)N[C@@H](CC(C)C)C(=O)N[C@@H](CC(C)C)C(=O)N[C@@H](CCC(=O)O)C(=O)N[C@@H](CCC(N)=O)C(=O)N[C@@H](CCC(=O)O)C(=O)N[C@@H](CCCCN)C(=O)N[C@@H](CCC(N)=O)C(=O)N[C@@H](CCCCN)C(=O)N[C@@H](CCCCN)C(=O)N[C@@H](CCC(N)=O)C(=O)N[C@@H](CCCNC(=N)N)C(=O)N[C@@H](CCC(=O)O)C(=O)N[C@@H](CCC(N)=O)C(=O)N[C@@H](C)C(=O)N[C@@H](CCC(=O)O)C(=O)N[C@H](C(=O)N[C@@H](CC(N)=O)C(=O)NC(C)(C)C(=O)N[C@@H](CCC(N)=O)C(=O)N[C@H](C(=O)N[C@@H](CC(C)C)C(=O)N[C@@H](C)C(=O)N[C@@H](CCC(N)=O)C(=O)N[C@H](C(N)=O)C(C)C)[C@@H](C)CC)[C@@H](C)O)[C@@H](C)CC)[C@@H](C)CC)C(C)C)C(C)C
B2: peptide of SEQ ID NO: 231 (peptide)
peptide: Ac-IVLSLD[dV]PIKLK([AEEA-γGlu-C20 diacid])KILLEQEKQKEQREQAETN[Aib]QILAQV-NH2
SMILES: CC[C@H](C)[C@H](NC(C)=O)C(=O)N[C@H](C(=O)N[C@@H](CC(C)C)C(=O)N[C@@H](CO)C(=O)N[C@@H](CC(C)C)C(=O)N[C@@H](CC(=O)O)C(=O)N[C@@H](C(=O)N1CCC[C@H]1C(=O)N[C@H](C(=O)N[C@@H](CCCCN)C(=O)N[C@@H](CC(C)C)C(=O)N[C@@H](CCCCNC(=O)COCCOCCNC(=O)CC[C@H](NC(=O)CCCCCCCCCCCCCCCCCCC(=O)O)C(=O)O)C(=O)N[C@@H](CCCCN)C(=O)N[C@H](C(=O)N[C@@H](CC(C)C)C(=O)N[C@@H](CC(C)C)C(=O)N[C@@H](CCC(=O)O)C(=O)N[C@@H](CCC(N)=O)C(=O)N[C@@H](CCC(=O)O)C(=O)N[C@@H](CCCCN)C(=O)N[C@@H](CCC(N)=O)C(=O)N[C@@H](CCCCN)C(=O)N[C@@H](CCC(=O)O)C(=O)N[C@@H](CCC(N)=O)C(=O)N[C@@H](CCCNC(=N)N)C(=O)N[C@@H](CCC(=O)O)C(=O)N[C@@H](CCC(N)=O)C(=O)N[C@@H](C)C(=O)N[C@@H](CCC(=O)O)C(=O)N[C@H](C(=O)N[C@@H](CC(N)=O)C(=O)NC(C)(C)C(=O)N[C@@H](CCC(N)=O)C(=O)N[C@H](C(=O)N[C@@H](CC(C)C)C(=O)N[C@@H](C)C(=O)N[C@@H](CCC(N)=O)C(=O)N[C@H](C(N)=O)C(C)C)[C@@H](C)CC)[C@@H](C)O)[C@@H](C)CC)[C@@H](C)CC)C(C)C)C(C)C
B3: peptide of SEQ ID NO: 232 (peptide)
peptide: Ac-IVLSLD[dV]PIKLK([AEEA-γGlu-C20 diacid])KILLEQEKQKAQREQAETN[Aib]QILAQV-NH2
SMILES: CC[C@H](C)[C@H](NC(C)=O)C(=O)N[C@H](C(=O)N[C@@H](CC(C)C)C(=O)N[C@@H](CO)C(=O)N[C@@H](CC(C)C)C(=O)N[C@@H](CC(=O)O)C(=O)N[C@@H](C(=O)N1CCC[C@H]1C(=O)N[C@H](C(=O)N[C@@H](CCCCN)C(=O)N[C@@H](CC(C)C)C(=O)N[C@@H](CCCCNC(=O)COCCOCCNC(=O)CC[C@H](NC(=O)CCCCCCCCCCCCCCCCCCC(=O)O)C(=O)O)C(=O)N[C@@H](CCCCN)C(=O)N[C@H](C(=O)N[C@@H](CC(C)C)C(=O)N[C@@H](CC(C)C)C(=O)N[C@@H](CCC(=O)O)C(=O)N[C@@H](CCC(N)=O)C(=O)N[C@@H](CCC(=O)O)C(=O)N[C@@H](CCCCN)C(=O)N[C@@H](CCC(N)=O)C(=O)N[C@@H](CCCCN)C(=O)N[C@@H](C)C(=O)N[C@@H](CCC(N)=O)C(=O)N[C@@H](CCCNC(=N)N)C(=O)N[C@@H](CCC(=O)O)C(=O)N[C@@H](CCC(N)=O)C(=O)N[C@@H](C)C(=O)N[C@@H](CCC(=O)O)C(=O)N[C@H](C(=O)N[C@@H](CC(N)=O)C(=O)NC(C)(C)C(=O)N[C@@H](CCC(N)=O)C(=O)N[C@H](C(=O)N[C@@H](CC(C)C)C(=O)N[C@@H](C)C(=O)N[C@@H](CCC(N)=O)C(=O)N[C@H](C(N)=O)C(C)C)[C@@H](C)CC)[C@@H](C)O)[C@@H](C)CC)[C@@H](C)CC)C(C)C)C(C)C
B4: peptide of SEQ ID NO: 233 (peptide)
peptide: [NMeI]VLSLD[dV]PIKLK([AEEA-γGlu-C20 diacid])KILLEQEKQKEQREQAETN[Aib]QILAQV-NH2
modifications: N-terminus assumed
SMILES: CC[C@H](C)[C@H](NC)C(=O)N[C@H](C(=O)N[C@@H](CC(C)C)C(=O)N[C@@H](CO)C(=O)N[C@@H](CC(C)C)C(=O)N[C@@H](CC(=O)O)C(=O)N[C@@H](C(=O)N1CCC[C@H]1C(=O)N[C@H](C(=O)N[C@@H](CCCCN)C(=O)N[C@@H](CC(C)C)C(=O)N[C@@H](CCCCNC(=O)COCCOCCNC(=O)CC[C@H](NC(=O)CCCCCCCCCCCCCCCCCCC(=O)O)C(=O)O)C(=O)N[C@@H](CCCCN)C(=O)N[C@H](C(=O)N[C@@H](CC(C)C)C(=O)N[C@@H](CC(C)C)C(=O)N[C@@H](CCC(=O)O)C(=O)N[C@@H](CCC(N)=O)C(=O)N[C@@H](CCC(=O)O)C(=O)N[C@@H](CCCCN)C(=O)N[C@@H](CCC(N)=O)C(=O)N[C@@H](CCCCN)C(=O)N[C@@H](CCC(=O)O)C(=O)N[C@@H](CCC(N)=O)C(=O)N[C@@H](CCCNC(=N)N)C(=O)N[C@@H](CCC(=O)O)C(=O)N[C@@H](CCC(N)=O)C(=O)N[C@@H](C)C(=O)N[C@@H](CCC(=O)O)C(=O)N[C@H](C(=O)N[C@@H](CC(N)=O)C(=O)NC(C)(C)C(=O)N[C@@H](CCC(N)=O)C(=O)N[C@H](C(=O)N[C@@H](CC(C)C)C(=O)N[C@@H](C)C(=O)N[C@@H](CCC(N)=O)C(=O)N[C@H](C(N)=O)C(C)C)[C@@H](C)CC)[C@@H](C)O)[C@@H](C)CC)[C@@H](C)CC)C(C)C)C(C)C
B5: peptide of SEQ ID NO: 234 (peptide)
peptide: [NMeI]VLSLD[dV]PIKLK([AEEA-γGlu-C20 diacid])KILLEQEKQK[Aib]QREQAETN[Aib]QILAQV-NH2
modifications: N-terminus assumed
SMILES: CC[C@H](C)[C@H](NC)C(=O)N[C@H](C(=O)N[C@@H](CC(C)C)C(=O)N[C@@H](CO)C(=O)N[C@@H](CC(C)C)C(=O)N[C@@H](CC(=O)O)C(=O)N[C@@H](C(=O)N1CCC[C@H]1C(=O)N[C@H](C(=O)N[C@@H](CCCCN)C(=O)N[C@@H](CC(C)C)C(=O)N[C@@H](CCCCNC(=O)COCCOCCNC(=O)CC[C@H](NC(=O)CCCCCCCCCCCCCCCCCCC(=O)O)C(=O)O)C(=O)N[C@@H](CCCCN)C(=O)N[C@H](C(=O)N[C@@H](CC(C)C)C(=O)N[C@@H](CC(C)C)C(=O)N[C@@H](CCC(=O)O)C(=O)N[C@@H](CCC(N)=O)C(=O)N[C@@H](CCC(=O)O)C(=O)N[C@@H](CCCCN)C(=O)N[C@@H](CCC(N)=O)C(=O)N[C@@H](CCCCN)C(=O)NC(C)(C)C(=O)N[C@@H](CCC(N)=O)C(=O)N[C@@H](CCCNC(=N)N)C(=O)N[C@@H](CCC(=O)O)C(=O)N[C@@H](CCC(N)=O)C(=O)N[C@@H](C)C(=O)N[C@@H](CCC(=O)O)C(=O)N[C@H](C(=O)N[C@@H](CC(N)=O)C(=O)NC(C)(C)C(=O)N[C@@H](CCC(N)=O)C(=O)N[C@H](C(=O)N[C@@H](CC(C)C)C(=O)N[C@@H](C)C(=O)N[C@@H](CCC(N)=O)C(=O)N[C@H](C(N)=O)C(C)C)[C@@H](C)CC)[C@@H](C)O)[C@@H](C)CC)[C@@H](C)CC)C(C)C)C(C)C

Biological target: Rat CRF2 a (corticotropin-releasing factor receptor 2), on the A7R5 rat aortic smooth muscle cell line (rat, UniProt P47866 20-411)
Assay: cell-based or functional assay

Chain of Rat CRF2 a (corticotropin-releasing factor receptor 2), on the A7R5 rat aortic smooth muscle cell line (P47866 20-411): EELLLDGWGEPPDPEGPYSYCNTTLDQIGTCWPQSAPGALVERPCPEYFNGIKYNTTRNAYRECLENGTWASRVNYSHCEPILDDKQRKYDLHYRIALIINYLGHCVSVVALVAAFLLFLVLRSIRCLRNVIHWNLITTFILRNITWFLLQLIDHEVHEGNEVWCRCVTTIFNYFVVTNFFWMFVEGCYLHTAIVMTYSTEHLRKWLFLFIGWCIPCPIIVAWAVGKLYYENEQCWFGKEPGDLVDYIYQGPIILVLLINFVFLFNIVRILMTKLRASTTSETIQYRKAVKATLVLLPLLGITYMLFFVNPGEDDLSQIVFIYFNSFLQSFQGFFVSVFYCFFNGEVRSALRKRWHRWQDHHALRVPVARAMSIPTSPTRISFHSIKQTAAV

Binder | EC50 [nM] 0% HSA (cAMP, A7R5 rat aortic smooth muscle cells)
B1 | 0.11 nM
B2 | 1.32 nM
B3 | 0.4 nM
B4 | 0.37 nM
B5 | 0.05 nM

Biological target: T1, CRF1R (corticotropin-releasing factor receptor 1), on the CRF1R-overexpression CHO-K1 cell line clone 2 (UniProt P34998 24-415, limits assumed)
T1 sequence (looked up): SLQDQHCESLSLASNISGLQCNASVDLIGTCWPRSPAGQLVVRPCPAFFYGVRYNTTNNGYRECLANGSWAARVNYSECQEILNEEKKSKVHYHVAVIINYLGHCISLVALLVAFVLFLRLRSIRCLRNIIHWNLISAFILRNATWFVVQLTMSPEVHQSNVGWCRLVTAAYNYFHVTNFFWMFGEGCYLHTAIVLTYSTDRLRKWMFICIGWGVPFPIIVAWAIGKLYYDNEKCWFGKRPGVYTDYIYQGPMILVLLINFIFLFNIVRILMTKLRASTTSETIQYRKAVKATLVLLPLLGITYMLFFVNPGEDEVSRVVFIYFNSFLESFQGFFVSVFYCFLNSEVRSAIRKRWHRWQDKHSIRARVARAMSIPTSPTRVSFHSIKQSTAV
Assay: cell-based or functional assay

Binder | EC50 [nM] (cAMP, CRF1R-overexpression CHO-K1 cells) | Emax (% I) (cAMP, 100% = Sauvagine at 100 nM)
B1 | > 250 nM | 30 % I
B2 | > 250 nM | 10 % I
B3 | > 250 nM | 13 % I
B4 | > 250 nM | 8 % I
B5 | > 250 nM | 15 % I
